Patent publication US20030236190A1 (published 2003)
Non-standard residues stand in square brackets, D forms with d. No end group written: not given here. Hyp = O=C(O)[C@@H]1C[C@@H](O)CN1

Target: T1, Soluble IGF-1R (R&D Systems, Cat. # 391-GR/CF); recombinant human IGF-1R (human, UniProt P08069 31-935)
T1 construct: extracellular domain; Eu3+-labelled in the TR-FRET assays; also called sIGF-1R; rhIGF-1R
Assay: phage ELISA, vs IR

Binder	IGF-1R/IR Comparison [ratio]
RGAVAGFHDQFYDWFDRQVSRVHKFG [H2CA-4-E9-IGFR]	3
CCTTEMVVMDARDDPFYHKLSELVTGG [B6Hα-1-B5-IR]	20.5
YRGMLVLGRISGGAGKAASERPARIGQKVSAVNFYDWFV [A6L-0-H3-IR]	13

Target: T1, Soluble IGF-1R (R&D Systems, Cat. # …)
Assay: phage ELISA vs milk

Binder	Ratio over Background [fold]
RGAVAGFHDQFYDWFDRQVSRVHKFG [H2CA-4-E9-IGFR]	5.6
CCTTEMVVMDARDDPFYHKLSELVTGG [B6Hα-1-B5-IR]	20.5
YRGMLVLGRISGGAGKAASERPARIGQKVSAVNFYDWFV [A6L-0-H3-IR]	26

Target: human insulin receptor (HIR) (human, UniProt P06213 28-1382, limits assumed)
Assay: 125I-insulin competition, solubilised HIR

Binder	Kd [nM]
ESFYDWFERQL [S399]	95
ESFYDWFERQ [S400]	630
S437 (not fully specified (bridges); cysteine pairing not given here; also: K16 of chain 1 chemically linked to C-terminus of chain 2 (C-C on a lysine)) peptide 1: ESFYDWFERQLGGGGK peptide 2: LDQEWAWVQCEVYGRGCPS	0.69
S438 (not fully specified (bridges); cysteine pairing not given here; also: K16 of chain 1 chemically linked to C-terminus of chain 2 (C-C on a lysine)) peptide 1: ESFYDWFERQLGGGGK peptide 2: DQEWAWVQCEVYGRGCPS	30
S439 (not fully specified (bridges); cysteine pairing not given here; also: K16 of chain 1 chemically linked to C-terminus of chain 2 (C-C on a lysine)) peptide 1: ESFYDWFERQLGGGGK peptide 2: QEWAWVQCEVYGRGCPS	46

Target: T2, human insulin receptor (HIR) (human, UniProt P06213 28-1382, limits assumed)
T2 construct: Detergent-solubilised receptor; The natural receptor is an alpha2-beta2 heterotetramer cleaved from one precursor
Assay: 125I-insulin displacement, solubilised HIR

Kd [nM]	Binder
200	SGSLDESFYDWFERQLGKK [S372]
120	GSLDESFYDWFERQLGKKKS (not fully specified; printed as GSLDESFYDWFERQLGKKK(S)) [S373]
180	S374 (not fully specified; N-terminal Ald (aldehyde from periodate oxidation of serine) coupled to linker 17, dimer, N-N) peptide 1: XGSLDESFYDWFERQLGKK peptide 2: XGSLDESFYDWFERQLGKK
160	S376 (N-terminal Ald coupled to linker 19, dimer, N-N) peptide 1: XGSLDESFYDWFERQLGKK peptide 2: XGSLDESFYDWFERQLGKK
65	S378 (C-terminal Lys carrying Ald coupled to linker 17, dimer, C-C) peptide 1: GSLDESFYDWFERQLGKKKX peptide 2: GSLDESFYDWFERQLGKKKX
56	S379 (C-terminal Lys carrying Ald coupled to linker 19, dimer, C-C) peptide 1: GSLDESFYDWFERQLGKKKX peptide 2: GSLDESFYDWFERQLGKKKX
120	S381 (C-terminal Lig′ coupled to linker 23, dimer, C-C) peptide 1: EEDWLQRNANFYDWFVAELX peptide 2: EEDWLQRNANFYDWFVAELX
320	GSLDESFYDWFERQLG (also called RP9 minus terminal lysines) [S386]
630	SLDESFYDWFERQLG [S387]
340	LDESFYDWFERQLG [S388]
3800	FYDWFERQLG [S392]
91	GSLDESFYDWFERQ [S394]
8100	GSLDESFYDWFERQL [S395]

Further lines, the binder ahead of its results:

Binder	Kd [nM]
EWRD[Hyp]FYDWFDE[dI][Hyp][dE] (printed: EWRD-Hyp-FYDWFDEi-Hyp-e) [S322]	720
S325 (N-terminal Lig′ coupled to linker 9, dimer, N-N) peptide 1: XGSLDESFYDWFERQLGKK peptide 2: XGSLDESFYDWFERQLGKK	46
GIISQSCPESFYDWFAGQVSDPWWC[dW] (cysteine pairing not given here, also called G33; H2CA-4-G9-IGFR) [S326]	590
S329 (N-terminal Lig′ coupled to linker 17, dimer, N-N) peptide 1: XFHENFYDWFVRQVSKK peptide 2: XFHENFYDWFVRQVSKK	2700
KHLCVLEELFWGASLFGYCSGKK [S331]	1600
S333 (N-terminal Lig′ coupled to linker 22, dimer, N-N) peptide 1: XGSLDESFYDWFERQLGKK peptide 2: XGSLDESFYDWFERQLGKK	140
S334 (N-terminal Lig′ coupled to linker 22, dimer, N-N) peptide 1: XGGGFHENFYDWFVRQVSKK peptide 2: XGGGFHENFYDWFVRQVSKK	1600
S335 (not fully specified; C-terminal Lig coupled to linker 22, dimer, C-C) peptide 1: GSLDESFYDWFERQLGKKX peptide 2: GSLDESFYDWFERQLGKKX	98
DLWFNAKEDMNFYDWFVWQLR [S342]	1800
S350 (not fully specified; C-terminal Lig coupled to linker 21, dimer, C-C) peptide 1: GSLDESFYDWFERQLGKKX peptide 2: GSLDESFYDWFERQLGKKX	470
S352 (N-terminal Lig′ coupled to linker 21, dimer, N-N) peptide 1: XGGGFHENFYDWFVRQVSKK peptide 2: XGGGFHENFYDWFVRQVSKK	660
S354 (N-terminal Lig′ coupled to linker 14, dimer, N-N) peptide 1: XGSLDESFYDWFERQLGKK peptide 2: XGSLDESFYDWFERQLGKK	39
S359 (N-terminal Lig′ coupled to linker 9, dimer, N-N) peptide 1: XDWLQRNANFYDWFVAEL peptide 2: XDWLQRNANFYDWFVAEL	700
S360 (N-terminal Lig′ coupled to linker 23, dimer, N-N) peptide 1: XDWLQRNANFYDWFVAEL peptide 2: XDWLQRNANFYDWFVAEL	990
S361 (C-terminal Lig′ coupled to linker 24, dimer, C-C) peptide 1: GSLDESFYDWFERQLGKKX peptide 2: GSLDESFYDWFERQLGKKX	2200
S362 (N-terminal Lig′ coupled to linker 24, dimer, N-N) peptide 1: XGSLDESFYDWFERQLGKK peptide 2: XGSLDESFYDWFERQLGKK	110
RMYFSTGAPQNFYDWFVQEWD [S365]	10000
PLRESRNFYDWFVQQLE [S366]	370
GSLDESFYDWFERQLGKK (also called RP9) [S371]	630
